Test results published in article PMC3037356, “BosR (BB0647) Controls the RpoN-RpoS Regulatory Pathway and Virulence Expression in Borrelia burgdorferi by a Novel DNA-Binding Mechanism” (PLoS Pathogens, 2011).

B1: ZM127 (BS2) (dsDNA)
DNA 1: TTTAGTTTAAAACCATTTTTAAATTAAATTGGCACAGTTTTTGCATGAAAATTAAGTAGT
DNA 2: ACTACTTAATTTTCATGCAAAAACTGTGCCAATTTAATTTAAAAATGGTTTTAAACTAAA
B2: ZM132 (BS1) (dsDNA)
DNA 1: GGCCTTGCCGATTTAATTTACAATCAATTACAAAAAAGTAAATAATTCAAAAAATACTCC
DNA 2: GGAGTATTTTTTGAATTATTTACTTTTTTGTAATTGATTGTAAATTAAATCGGCAAGGCC
B3: ZM166 (-24/-12 and DR mutant) (dsDNA)
DNA 1: TTTAGTTTAAAACCATTTTTAGGCCAAATTTTCACAGTTTTTGAATTCCAACAGGCAAAA
DNA 2: TTTTGCCTGTTGGAATTCAAAAACTGTGAAAATTTGGCCTAAAAATGGTTTTAAACTAAA
B4: ZM149 (dsDNA)
DNA 1: TTTAGTTTAAAACCATTTTTAAATTAAATTGGCACAGTTTTTGCATTTTAACAGGCAAAA
DNA 2: TTTTGCCTGTTAAAATGCAAAAACTGTGCCAATTTAATTTAAAAATGGTTTTAAACTAAA
B5: ZM213 (DR1 mutant) (dsDNA)
DNA 1: ATTTTATATCCTAGGCCGTTTAAAACCATTTTTAAATTAAATTGGCACAGTTTTTGCATG
DNA 2: CATGCAAAAACTGTGCCAATTTAATTTAAAAATGGTTTTAAACGGCCTAGGATATAAAAT
B6: ZM223 (DR1 and DR2 mutant) (dsDNA)
DNA 1: ATTTTATATCCTAGGCCGTTTAAAACCATTTTTAGGCCAAATTGGCACAGTTTTTGCATG
DNA 2: CATGCAAAAACTGTGCCAATTTGGCCTAAAAATGGTTTTAAACGGCCTAGGATATAAAAT
B7: ZM160 (5' of BS3) (dsDNA)
DNA 1: TCACAATATTCAAGAAAGGGGAGAAAATATAATAACTATGAACATATTTAGTAATGAGGA
DNA 2: TCCTCATTACTAAATATGTTCATAGTTATTATATTTTCTCCCCTTTCTTGAATATTGTGA
B8: ZM219 (bosR upstream) (dsDNA)
DNA 1: AAAAAAATATGAAAATAAATAAATAATAAGTAGTAAAATATTAATAACTGGGTATAAAAT
DNA 2: ATTTTATACCCAGTTATTAATATTTTACTACTTATTATTTATTTATTTTCATATTTTTTT
B9: ZM220 (ZM219 DR mutant) (dsDNA)
DNA 1: AAAAAAATATGAAAATGGCCAAATAATAAGTAGTAAAATATTAATAACTGGGTATAAAAT
DNA 2: ATTTTATACCCAGTTATTAATATTTTACTACTTATTATTTGGCCATTTTCATATTTTTTT
B10: ZM126 (dsDNA)
DNA 1: TTGCATGGAAATTAAGTAGTAAAAACTTAATCACAATATTCAAGAAAGGGGAGAAAATAT
DNA 2: ATATTTTCTCCCCTTTCTTGAATATTGTGATTAAGTTTTTACTACTTAATTTCCATGCAA
B11: ZM155 (BS1 5' DR) (dsDNA)
DNA 1: CTCAAAGCTTTGGCCTTGCCGATTTAATTTACAATCAATTACAAAGCTGAGATCTGTCGA
DNA 2: TCGACAGATCTCAGCTTTGTAATTGATTGTAAATTAAATCGGCAAGGCCAAAGCTTTGAG
B12: ZM210 (ZM155 DR mutant) (dsDNA)
DNA 1: CTCAAAGCTTTGGCCTTGCCGATTTGGCCTACAATCAATTACAAAGCTGAGATCTGTCGA
DNA 2: TCGACAGATCTCAGCTTTGTAATTGATTGTAGGCCAAATCGGCAAGGCCAAAGCTTTGAG
B13: ZM156 (BS1 3' DR) (dsDNA)
DNA 1: GCTGAGATCTGTCGAATCAATTACAAAAAAGTAAATAATTCAAAAAATACTCCCCCTAAA
DNA 2: TTTAGGGGGAGTATTTTTTGAATTATTTACTTTTTTGTAATTGATTCGACAGATCTCAGC
B14: ZM211 (ZM156 DR mutant) (dsDNA)
DNA 1: GCTGAGATCTGTCGAATCAATTACAAAAAAGTAGGCCATTCAAAAAATACTCCCCCTAAA
DNA 2: TTTAGGGGGAGTATTTTTTGAATGGCCTACTTTTTTGTAATTGATTCGACAGATCTCAGC
B15: ZM216 (ZM215 DR mutant) (dsDNA)
DNA 1: TGGTTTAGATGGCCTTTTTTTCTCAATTCAGCAATTTCTGAATATAGAATTTTCATATCT
DNA 2: AGATATGAAAATTCTATATTCAGAAATTGCTGAATTGAGAAAAAAAGGCCATCTAAACCA
B16: ZM218 (ZM217 DR mutant) (dsDNA)
DNA 1: AGTGTAAAAAGGCCAATCAATTTTTTCATTAAATATCCTTTTTATTTATTATGGTATTAA
DNA 2: TTAATACCATAATAAATAAAAAGGATATTTAATGAAAAAATTGATTGGCCTTTTTACACT
B17: ZM147 (dsDNA)
DNA 1: AAAAAGCTGAGATCTGTCGACATCCATGGTGGCACAGTTTTTGCATGAAAATTAAGTAGT
DNA 2: ACTACTTAATTTTCATGCAAAAACTGTGCCACCATGGATGTCGACAGATCTCAGCTTTTT
B18: ZM157 (-24/-12 mutant) (dsDNA)
DNA 1: TTTAGTTTAAAACCATTTTTAAATTAAATTTTCACAGTTTTTGAATTCCAACAGGCAAAA
DNA 2: TTTTGCCTGTTGGAATTCAAAAACTGTGAAAATTTAATTTAAAAATGGTTTTAAACTAAA
B19: Recombinant BosR (BB0647) (natural protein)
chain: MNDNIIDVHSALEKVGITNDPVLLKNLTSELGMKASHSRNRIILYIASNPKEYFTAKEVYNKLIKEIPSLSKATVYNTLNILKERNILKDIKTTDQKETKFYLSLASTIAHFKCNKCNQVHPIQLDDIKDILKDKLGENWETKSIEIIYSGHCNNCYKKDTHNNNNVPDENKEITL
notes: BosR (BB0647), Fur/PerR homologue of Borrelia burgdorferi; bosR amplified with primers ZM69F and ZM69R and cloned into pET SUMO (pOY73); apparent mass ~18.7 kDa, as for native BosR; The protein contained 1.4 mol of zinc per mol of protein; also called rBosR; purified BosR; source: E. coli BL21-DE3, purified (Ni-NTA spin column, SUMO protease cleavage, Superdex 200); not shown: His6, N-terminal, …

What follows are binders tested against T1, BosR (rBosR) (UniProt O51592 1-176) (assay: EMSA; 20 mM Hepes pH 7.5, 50 mM KCl, 1 mM MgCl2, 1 mM DTT, 5% glycerol, 100 ug/ml BSA, 50 ug/ml poly[d(A-T)], 30 fmol probe in 20 ul, 37 C 30 min). Settings: protein: recombinant; tags: none (His6-SUMO tag removed by SUMO protease); chain copies: 2; label: digoxigenin 3' end (terminal transferase); blunt.
Work on B1 yielded a Kd of 36.6 nM.
B2 showed a Kd of 210 nM.

Same assay, conditions: protein: recombinant; tags: none (His6-SUMO tag removed by SUMO protease); chain copies: 2; label: digoxigenin 3' end; blunt
B3: no binding.
B4: binds.
B5: binds.
B6: no binding.
B7: no binding.
B8: binds.
B9: no binding.
B10: no binding.
B11: binds.
B12: no binding.
B13: binds.
B14: no binding.
B15: no binding.
B16: no binding.
B17: no binding.

These binders were tested against T1, BosR (rBosR) (assay: EMSA; binding not altered; 20 mM Hepes pH 7.5, 50 mM KCl, 1 mM MgCl2, 1 mM DTT, 5% glycerol, 100 ug/ml BSA, 50 ug/ml poly[d(A-T)], 30 fmol probe in 20 ul, 37 C 30 min). Settings: protein: recombinant; tags: none (His6-SUMO tag removed by SUMO protease); chain copies: 2; label: digoxigenin 3' end; blunt.
B18: binds.

Molecular target: the molecule itself
Test: SEC; purified BosR on a Superdex 200 column, calibrated with aldolase 158 kDa, ovalbumin 43 kDa and ribonuclease A 13.7 kDa; buffer A: 20 mM Tris, 20 mM NaCl, 100 mM L-arginine, pH 7.5
Settings: not given
For B19, the “stoichiometry N” value was 2.
